For 1 molecule, Ka results are on record in paper PMC10024333 (Iranian Journal of Pharmaceutical Research : IJPR, 2022).

The assay addresses T1, Trx-CD20 (thioredoxin-tagged CD20/G4S cassette: Trx, ECL1, (G4S)3 linker, ECL2, C-terminal His-tag) (Homo sapiens, UniProt P11836).
T1 chain: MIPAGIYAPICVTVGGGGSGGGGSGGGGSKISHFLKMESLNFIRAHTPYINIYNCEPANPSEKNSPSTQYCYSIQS
Briefly: ELISA. In general terms: ELISA stands for enzyme-linked immunosorbent assay.

B1: Zytux (rituximab, Aryogen Pharmed, Iran) (antibody, V domains shown)
VH: QVQLQQPGAELVKPGASVKMSCKASGYTFTSYNMHWVKQTPGRGLEWIGAIYPGNGDTSYNQKFKGKATLTADKSSSTAYMQLSSLTSEDSAVYYCARSTYYGGDWYFNVWGAGTTVTVSA
VL: QIVLSQSPAILSASPGEKVTMTCRASSSVSYIHWFQQKPGSSPKPWIYATSNLASGVPVRFSGSGSGTSYSLTISRVEAEDAATYYCQQWTSNPPTFGGGTKLEIK
Regarding B1, the Ka was found to be 2.66e+12 M⁻¹.
